From US20140248360A1, “NANOPARTICLE TUMOUR VACCINES” (MIDATECH LIMITED, priority 2011, published 2014)

Key:
[1] = Aggregation and solubility of nanoparticle preparations; type: physicochemical; details: for NP formed in repeat production: 75% methanol not 95% in the synthesis stage
Description: Samples were bench spun the supernatant removed and the dark pellet dissolved in 2 ml water, and then transferred to a 10 kDa vivaspin for a total of 4 times 2 ml water washes each of 8 min at 5 Krpm. Nanoparticles (NPs) were removed from the vivaspins and made up to 500 μl with water, they were then subjected to 15 Krpm bench spin to remove any large aggregates.
NP's 2-5 were produced by a variation using 75% methanol not 95% in the synthesis stage.

[2] = target: SIINFEKL:K^b complex (SIINFEKL complexed to H-2K^b) on LK^b cells (murine) (UniProt P01901); assay: cell-based or functional assay
UniProt P01901, sequence (P01901 22-369 limits assumed, one chain of several): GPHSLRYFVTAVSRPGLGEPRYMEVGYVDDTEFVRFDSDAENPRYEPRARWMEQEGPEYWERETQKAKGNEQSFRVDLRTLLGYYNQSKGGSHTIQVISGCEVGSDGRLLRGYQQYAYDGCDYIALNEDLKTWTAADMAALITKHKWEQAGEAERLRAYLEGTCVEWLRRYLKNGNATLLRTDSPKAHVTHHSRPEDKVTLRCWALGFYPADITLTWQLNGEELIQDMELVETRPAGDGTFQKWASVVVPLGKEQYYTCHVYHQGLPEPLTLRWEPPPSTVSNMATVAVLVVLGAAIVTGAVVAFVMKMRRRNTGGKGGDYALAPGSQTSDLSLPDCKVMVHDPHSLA

β-galactosidase measured using a luminescent substrate (B3Z activation); limit of detection as SIINFEKL pulse concentration [2] | Substance | solubility of NP aggregates in NaOH ([1]; 300 mM NaOH) | NP formed in repeat production [1] | aggregation of NP after synthesis ([1]; first production, after 15 Krpm bench spin) | solubility of NP aggregates ([1]; water, 10% acetic acid, PBS, DMSO or DMF)
 | NP 3: gold nanoparticle, GlcC2 corona, peptide ligand FLSIINFEKL-N-(CH2)2-SH | total NP solubilisation | formed aggregates | large near complete aggregation | not soluble
5 ng/mL | T cell receptor of the SIINFEKL:Kb-specific T hybridoma B3Z (TCR) |  |  |  | 
 | NP 2: gold nanoparticle, GlcC2 corona, peptide ligand SIINFEKL-N-(CH2)2-SH |  | ‘normal’ NP |  | 
